One test deals with T1, FPRL1 (Homo sapiens, UniProt P25090).
T1 construct: expressed in transfected cells; host or cells: rat basophil leukemia RBL-2H3 cells, kept under G418
T1 sequence (P25090 1-351): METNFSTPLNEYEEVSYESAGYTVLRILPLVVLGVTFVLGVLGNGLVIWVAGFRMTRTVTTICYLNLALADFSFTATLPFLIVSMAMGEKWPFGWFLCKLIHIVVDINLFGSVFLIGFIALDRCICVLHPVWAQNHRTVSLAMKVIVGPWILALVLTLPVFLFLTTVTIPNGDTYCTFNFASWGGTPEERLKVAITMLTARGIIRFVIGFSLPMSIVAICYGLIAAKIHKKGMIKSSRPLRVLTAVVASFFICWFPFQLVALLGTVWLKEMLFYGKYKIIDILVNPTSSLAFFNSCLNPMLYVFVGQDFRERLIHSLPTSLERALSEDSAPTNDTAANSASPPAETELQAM
Put plainly: Flow cytometry binding of biotinylated linker polypeptide to FPRL1/RBL, vector/RBL or FPR/RBL cells. As to the method: To evaluate the degree of binding of linker polypeptide corresponding to the link region of human CTGF, linker polypeptide was labeled using a EZ-Link Micro Sulfo-NHS-LC-Biotinylation kit (Pierce Chemical Co., Rockford, Ill., USA) according to the manufacturer's instruction. The linker polypeptide was cultured at room temperature for 1 hour in PBS with 9 mM sulfo-NHS-LC-biotin (Pierce Chemical Co., Rockford, Ill., USA). During biotinylation, vector/RBL cells, FPR/RBL cells, FPRL1/RBL cells, or HUVECs were treated with trypsin, and collected, and then, treated with rabbit serum at room temperature for 30 minutes. After culturing the biotinylated linker polypeptide in the ice for 30 minutes, the cells were shortly washed with ice-cold PBS, cultured with antihuman fluoroscein-5-isothiocyanate (FITC)-conjugated streptavidin (Pierce Chemical Co.), and then, washed with ice-cold PBS, and fixed with 1% formaldehyde solution. And then, they were analyzed using FACS Caliber system (BD Biosciences, San Jose, Calif.) with CellQuest and WinMDI 2.9 software according to previously known method (He, R., Sang, H. & Ye, R. D. Serum amyloid A induces IL-8 secretion through a G protein-coupled receptor, FPRL1/LXA4R. Blood 101, 1572-1581, 2003). […]

For another test, the system named is HUVECs. Put plainly: Intracellular Ca2+ concentration in HUVECs. Format: cell-based, human. The method, then:
FPRL1/RBL, vector/RBL or FPR/RBL cells were cultured in a fluo-3-AM working solution containing 0.03% (w/v) plutonic F-127 (Molecular Probes) at 37° C. for 1 hour so that the final concentration of fluo-3-AM became 20 uM/L. After the culturing, fluo-3-AM fluorescence occurred at 488 nm with high-power Ar^+ laser in the cells, and the emission band was measured at 530 nm with photomultiplier. Fluorescence signal was detected using confocal laser scanning system (LSM 510 Meta; Carl Zeiss, Jena, Germany) equipped with Nikon E-600 Eclipse microscope. Fluorescence intensities before adding CTGF (F0) and after adding CTGF (F) were measured. Change in the intracelullar Ca^2+ concentration [Ca^2+]i was indicated by F/F0 ratio. From each cell, 50 to 120 images were scanned.
And, HUVECs were treated with the CTGF linker polypeptide or rhCTGF at various concentrations for 1 hour, it was confirmed whether intracellular Ca^2+ concentration increases by the above method, and the results are shown in FIG. 15.

No end group written: not given here.

Turning to “EWVCDEPKDQTVVGPALAAYRLEDTFGPDPTMIRANCLV (EWVCDEPKDQTVVGPALAAYRLEDTFGPDPTMIRANCLV-NH2; cysteine pairing not given here) [CTGF linker polypeptide]”, the “binding of biotinylated linker polypeptide to cells” value with FPRL1 (10 nM, FPRL1/RBL, vector/RBL or FPR/RBL cells) is “binds only to FPRL1/RBL cells”. Also, the “intracellular Ca2+ concentration in HUVECs” value in the test with HUVECs (various concentrations, 1 hour) was “increases intracellular Ca^2+ concentration in a concentration-dependent manner”.
Take WRWWWW (FPRL1 antagonist) [WRW4]: in the test with FPRL1 (WRW4 10 uM, 30 minutes), the “effect of antagonist on linker polypeptide binding” value is “the linker polypeptide binding is inhibited in FPR/RBL cells”. Besides, the “effect of antagonist on Ca2+ increase by CTGF linker polypeptide in HUVECs” value in the test on HUVECs (WRW4 10 uM) was “that's not the case when the cells are treated with FPRL1 antagonist WRW4”.
